From PMC6585436 (Chemistry & biology, 2015)

Target: MtMscL CΔ48 C-GFP (pet15b-MtMscL CΔ(103–151)-S-TEV-GFP-6xHis) (Mycobacterium tuberculosis) (UniProt A5U127)
Assay: native MS

Q: How did the stoichiometry N turn out when “MtMscL CΔ48 C-GFP (pet15b-MtMscL CΔ(103–151)-S-TEV-GFP-6xHis) (from UniProt A5U127 1-102) (domain or fragment)” was run?
A: Its stoichiometry N is 5.
